PMC11514473, “The transition state for coupled folding and binding of a disordered DNA binding domain resembles the unbound state” (Nucleic Acids Research, 2024)
Where no end group is shown, it is not given here.

Assays:
[1] = target: T1, CREB 285bZIP (bZIP domain of human cAMP-response element binding protein, residues 285-339, cysteines … (human)); assay: stopped-flow urea refolding kinetics (intrinsic tyrosine fluorescence); 285bZIP in 8 M urea mixed 1:10 with buffer of lower urea concentrations; 2.2, 4.5 and 9.1 uM CREB; excitation 278 nm, 305 nm cut-off filter; 25.0 C; traces fit to a 2-state reversible 2P to P2 model; L and k1 extrapolated by straight line fits to the absence of urea; dimer to monomers; settings: both partners purified
T1 chain: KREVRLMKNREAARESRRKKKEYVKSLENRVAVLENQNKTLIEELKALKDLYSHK

[2] = target: T2, CREB 285bZIP wild type (pseudo-WT, Cys to Ser) (human, UniProt P16220-1 285-339, C300S;C310S;C337S); assay: NMR; two-fold excess DNA over dimer; basic region folds to helix; 10 mM Mg2+; 10 mM MES pH 6.5, 150 mM NaCl, 10 mM MgCl2, 0.05% Tween-20, 25 C; NMR: 10 mM Tris-d11, 150 mM NaCl, 10 mM MgCl2, 1 mM NaN3, 5% D2O (NOE at 25 C); settings: protein: recombinant; tags: extra N-terminal Gly after TEV cleavage; His6-GB1 removed; chain copies: 2; label: none; blunt, self-complementary, 2 copies
T2 sequence: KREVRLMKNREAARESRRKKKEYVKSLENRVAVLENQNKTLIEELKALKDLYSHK

B1: CREB 285bZIP (bZIP domain of human cAMP-response element binding protein, residues 285-339, cysteines replaced with serines) (domain or fragment)
chain: KREVRLMKNREAARESRRKKKEYVKSLENRVAVLENQNKTLIEELKALKDLYSHK
modifications: also: homodimer
B1 was tested, and the Kd [1] was 11 ± 2 nM and the kon [1] was 7.1e+06 ± 500000 M⁻¹ s⁻¹.

B2: symmetric CRE DNA (NMR) (dsDNA)
DNA 1: AGATGACGTCATCT
DNA 2: AGATGACGTCATCT
B2: binds [2].
